The results in this text go back to PMC11813886, “Functional and structural characterization of mouse Factor H-related B protein unveils a novel dimerization domain shared by FHR-B and FH” (Frontiers in Immunology, 2025).

This series concerns the molecule itself. Kind of series: AUC; sedimentation velocity, 48000 rpm, protein in PBS pH 7; c(s) distributions with SEDFIT; dimer to monomers.

B1: human FHR-1 (natural protein, UniProt Q03591 19-330, looked up)
chain: EATFCDFPKINHGILYDEEKYKPFSQVPTGEVFYYSCEYNFVSPSKSFWTRITCTEEGWSPTPKCLRLCFFPFVENGHSESSGQTHLEGDTVQIICNTGYRLQNNENNISCVERGWSTPPKCRSTDTSCVNPPTVQNAHILSRQMSKYPSGERVRYECRSPYEMFGDEEVMCLNGNWTEPPQCKDSTGKCGPPPPIDNGDITSFPLSVYAPASSVEYQCQNLYQLEGNKRITCRNGQWSEPPKCLHPCVISREIMENYNIALRWTAKQKLYLRTGESAEFVCKRGYRLSSRSHTLRTTCWDGKLEYPTCAKR
notes: human factor H-related protein 1 (FHR-1); also called hFHR-1
For the protein B1, the stoichiometry N – broadly, the number of molecules, sites or subunits per partner or assembly – stood at 2.
